{
  "source": "paper PMC10978839",
  "proteins": {"B1": {"name": "SEMA7A: N258Q (protein)", "parent chain": "MTPPPPGRAAPSAPRARVPGPPARLGLPLRLRLLLLLWAAAASAQGHLRSGPRIFAVWKGHVGQDRVDFGQTEPHTVLFHEPGSSSVWVGGRGKVYLFDFPEGKNASVRTVNIGSTKGSCLDKRDCENYITLLERRSEGLLACGTNARHPSCWNLVNGTVVPLGEMRGYAPFSPDENSLVLFEGDEVYSTIRKQEYNGKIPRFRRIRGESELYTSDTVMQNPQFIKATIVHQDQAYDDKIYYFFREDNPDKNPEAPLNVSRVAQLCRGDQGGESSLSVSKWNTFLKAMLVCSDAATNKNFNRLQDVFLLPDPSGQWRDTRVYGVFSNPWNYSAVCVYSLGDIDKVFRTSSLKGYHSSLPNPRPGKCLPDQQPIPTETFQVADRHPEVAQRVEPMGPLKTPLFHSKYHYQKVAVHRMQASHGETFHVLYLTTDRGTIHKVVEPGEQEHSFAFNIMEIQPFRRAAAIQTMSLDAERRKLYVSSQWEVSQVPLDLCEVYGGGCHGCLMSRDPYCGWDQGRCISIYSSERSVLQSINPAEPHKECPNPKPDKAPLQKVSLAPNSRYYLSCPMESRHATYSWRHKENVEQSCEPGHQSPNCILFIENLTAQQYGHYFCEAQEGSYFREAQHWQLLPEDGIMAEHLLGHACALAASLWLGVLPTLTLGLLVH"}, "B2": {"name": "SEMA7A: tunicamycin (protein)", "parent chain": "B1 parent chain"}, "B3": {"name": "SEMA7A: N602Q (protein)", "parent chain": "B1 parent chain"}, "B4": {"name": "SEMA7A: N330Q (protein)", "parent chain": "B1 parent chain"}, "B5": {"name": "SEMA7A: 3NQ (protein)", "parent chain": "B1 parent chain"}, "B6": {"name": "SEMA7A: 5NQ (protein)", "parent chain": "B1 parent chain"}, "B7": {"name": "SEMA7A: N105Q (protein)", "parent chain": "B1 parent chain"}, "B8": {"name": "SEMA7A: PNGase F (protein)", "parent chain": "B1 parent chain"}, "B9": {"name": "SEMA7A: N157Q (protein)", "parent chain": "B1 parent chain"}},
  "key": {"[1]": {"test": "confocal colocalisation with calreticulin/GM130; membrane trafficking", "details": "glycan lost; control: SEMA7A-WT"}, "[2]": {"test": "CHX chase immunoblot, turnover rate", "details": "glycan lost"}, "[3]": {"test": "non-reducing vs reducing western blot", "details": "glycan lost; control: SEMA7A-WT"}, "[4]": {"test": "ELISA of secreted SEMA7A", "details": "glycan lost; control: SEMA7A-WT"}, "[5]": {"test": "coculture, Annexin V/PI flow cytometry", "details": "glycan lost; control: SEMA7A-WT tumor cells"}, "[6]": {"test": "CRT expression and nuclear HMGB1 with doxorubicin", "details": "glycan lost; control: SEMA7A-WT cells"}, "[7]": {"test": "CHX plus MG132/HCQ/BTZ, immunoblot; degradation pathway", "details": "glycan lost; control: SEMA7A-WT"}, "[8]": {"test": "cleaved Caspase-3 and proliferation", "details": "glycan lost; control: SEMA7A-WT cells"}, "[9]": {"test": "flow cytometry of PD-1, LAG3, CTLA4, TIM3", "details": "glycan lost; control: SEMA7A-WT tumor cells"}, "[10]": {"test": "IL-2 ELISA after coculture", "details": "glycan lost; control: SEMA7A-WT tumor cells"}, "[11]": {"test": "cell viability", "details": "glycan lost; control: SEMA7A-WT cells"}, "[12]": {"test": "real-time PCR of PD-L1 isoforms", "details": "glycan lost; control: SEMA7A-WT cells"}, "[13]": {"test": "immunofluorescence intensity, HN6 and HN30", "details": "glycan lost; control: untreated and O-Glycosidase-treated cells"}},
  "data": [
    {"protein": "B1", "values": [
      {"measurement": "localisation_or_trafficking", "setting": "[1]", "result": "no change"}
    ]},
    {"protein": "B2", "values": [
      {"measurement": "degradation_or_half_life", "setting": "[2]; control: untreated (endogenous SEMA7A)", "result": "increases"}
    ]},
    {"protein": "B3", "values": [
      {"measurement": "localisation_or_trafficking", "setting": "[1]", "result": "no change"}
    ]},
    {"protein": "B4", "values": [
      {"measurement": "localisation_or_trafficking", "setting": "[1]", "result": "no change"}
    ]},
    {"protein": "B5", "values": [
      {"measurement": "oligomerisation", "setting": "[3]", "result": "no change"}
    ]},
    {"protein": "B6", "values": [
      {"measurement": "expression_or_secretion", "setting": "[4]", "result": "no change"},
      {"measurement": "degradation_or_half_life", "setting": "[2]; control: SEMA7A-WT", "result": "increases"},
      {"measurement": "other: susceptibility to CD8+ T-cell killing", "setting": "[5]", "result": "increases"},
      {"measurement": "other: immunogenic cell death markers", "setting": "[6]", "result": "increases"},
      {"measurement": "oligomerisation", "setting": "[3]", "result": "abolishes"},
      {"measurement": "degradation_or_half_life", "setting": "[7]", "result": "changes"},
      {"measurement": "other: sensitivity to EGFR inhibitors", "setting": "[8]", "result": "increases"},
      {"measurement": "localisation_or_trafficking", "setting": "[1]", "result": "decreases"},
      {"measurement": "other: exhaustion of cocultured CD8+ T cells", "setting": "[9]", "result": "decreases"},
      {"measurement": "other: IL-2 release by cocultured Jurkat cells", "setting": "[10]", "result": "increases"},
      {"measurement": "other: sensitivity to doxorubicin", "setting": "[11]", "result": "increases"},
      {"measurement": "other: PD-L1 alternative splicing", "setting": "[12]", "result": "changes"}
    ]},
    {"protein": "B7", "values": [
      {"measurement": "localisation_or_trafficking", "setting": "[1]", "result": "no change"}
    ]},
    {"protein": "B8", "values": [
      {"measurement": "other: immunofluorescence detection by antibody", "setting": "[13]", "result": "increases"}
    ]},
    {"protein": "B9", "values": [
      {"measurement": "localisation_or_trafficking", "setting": "[1]", "result": "no change"}
    ]}
  ]
}
